For the assay, the target named is T1, p300 (mouse, UniProt B2RWS6 2-2412).
T1 construct: whole, on cells; Endogenous protein inside fixed, permeabilised LPS-stimulated mouse spleen B cells; It was detected through a DNA barcode-labeled antibody (clone RW128)
Description: joining PCR of DNA barcode-labeled antibodies in hydrogel with NGS; LPS-stimulated mouse spleen B cells.
Description: B cells collected from mouse spleen were suspended in serum-free medium. The cells were seeded on each well of fluororesin-coated glass slides (super hydrophobic printed glass slides, 10 wells, 6 mm diameter, Matsunami Glass Ind., Ltd., Cat. No. TF1006, see FIG. 6) with an adjusted density of 5000 cells/30 μL per circle. The cells were cultured in 5% CO₂ at 37° C. for 30 minutes, and the culture supernatant was removed. […] The cells were cultured in 5% CO₂ at 37° C. for 24 hours. IL-4 was used as stimulation for B-cell activation.
The joining PCR of the antibody barcodes that come in close proximity was performed using Mastercycler nexus flat (trade-name) (Eppendorf) PCR cycler. […] The PCR reaction was performed through a program consisting of six steps: step 1: 95° C., 2 minutes; step 2: (95° C., 30 seconds and 68° C., 1 minute)×10 cycles; step 3: (95° C., 30 seconds, 55° C., 30 seconds and 68° C., 1 minute)×2 cycles; step 4: (95° C., 30 seconds, 60° C., 30 seconds and 68° C., 1 minute)×16 cycles; step 5: 68° C., 1 minute; and step 6: 4° C., infinity. The samples after completion of the PCR reaction were stored at −20° C.

T1 sequence (B2RWS6 2-2412): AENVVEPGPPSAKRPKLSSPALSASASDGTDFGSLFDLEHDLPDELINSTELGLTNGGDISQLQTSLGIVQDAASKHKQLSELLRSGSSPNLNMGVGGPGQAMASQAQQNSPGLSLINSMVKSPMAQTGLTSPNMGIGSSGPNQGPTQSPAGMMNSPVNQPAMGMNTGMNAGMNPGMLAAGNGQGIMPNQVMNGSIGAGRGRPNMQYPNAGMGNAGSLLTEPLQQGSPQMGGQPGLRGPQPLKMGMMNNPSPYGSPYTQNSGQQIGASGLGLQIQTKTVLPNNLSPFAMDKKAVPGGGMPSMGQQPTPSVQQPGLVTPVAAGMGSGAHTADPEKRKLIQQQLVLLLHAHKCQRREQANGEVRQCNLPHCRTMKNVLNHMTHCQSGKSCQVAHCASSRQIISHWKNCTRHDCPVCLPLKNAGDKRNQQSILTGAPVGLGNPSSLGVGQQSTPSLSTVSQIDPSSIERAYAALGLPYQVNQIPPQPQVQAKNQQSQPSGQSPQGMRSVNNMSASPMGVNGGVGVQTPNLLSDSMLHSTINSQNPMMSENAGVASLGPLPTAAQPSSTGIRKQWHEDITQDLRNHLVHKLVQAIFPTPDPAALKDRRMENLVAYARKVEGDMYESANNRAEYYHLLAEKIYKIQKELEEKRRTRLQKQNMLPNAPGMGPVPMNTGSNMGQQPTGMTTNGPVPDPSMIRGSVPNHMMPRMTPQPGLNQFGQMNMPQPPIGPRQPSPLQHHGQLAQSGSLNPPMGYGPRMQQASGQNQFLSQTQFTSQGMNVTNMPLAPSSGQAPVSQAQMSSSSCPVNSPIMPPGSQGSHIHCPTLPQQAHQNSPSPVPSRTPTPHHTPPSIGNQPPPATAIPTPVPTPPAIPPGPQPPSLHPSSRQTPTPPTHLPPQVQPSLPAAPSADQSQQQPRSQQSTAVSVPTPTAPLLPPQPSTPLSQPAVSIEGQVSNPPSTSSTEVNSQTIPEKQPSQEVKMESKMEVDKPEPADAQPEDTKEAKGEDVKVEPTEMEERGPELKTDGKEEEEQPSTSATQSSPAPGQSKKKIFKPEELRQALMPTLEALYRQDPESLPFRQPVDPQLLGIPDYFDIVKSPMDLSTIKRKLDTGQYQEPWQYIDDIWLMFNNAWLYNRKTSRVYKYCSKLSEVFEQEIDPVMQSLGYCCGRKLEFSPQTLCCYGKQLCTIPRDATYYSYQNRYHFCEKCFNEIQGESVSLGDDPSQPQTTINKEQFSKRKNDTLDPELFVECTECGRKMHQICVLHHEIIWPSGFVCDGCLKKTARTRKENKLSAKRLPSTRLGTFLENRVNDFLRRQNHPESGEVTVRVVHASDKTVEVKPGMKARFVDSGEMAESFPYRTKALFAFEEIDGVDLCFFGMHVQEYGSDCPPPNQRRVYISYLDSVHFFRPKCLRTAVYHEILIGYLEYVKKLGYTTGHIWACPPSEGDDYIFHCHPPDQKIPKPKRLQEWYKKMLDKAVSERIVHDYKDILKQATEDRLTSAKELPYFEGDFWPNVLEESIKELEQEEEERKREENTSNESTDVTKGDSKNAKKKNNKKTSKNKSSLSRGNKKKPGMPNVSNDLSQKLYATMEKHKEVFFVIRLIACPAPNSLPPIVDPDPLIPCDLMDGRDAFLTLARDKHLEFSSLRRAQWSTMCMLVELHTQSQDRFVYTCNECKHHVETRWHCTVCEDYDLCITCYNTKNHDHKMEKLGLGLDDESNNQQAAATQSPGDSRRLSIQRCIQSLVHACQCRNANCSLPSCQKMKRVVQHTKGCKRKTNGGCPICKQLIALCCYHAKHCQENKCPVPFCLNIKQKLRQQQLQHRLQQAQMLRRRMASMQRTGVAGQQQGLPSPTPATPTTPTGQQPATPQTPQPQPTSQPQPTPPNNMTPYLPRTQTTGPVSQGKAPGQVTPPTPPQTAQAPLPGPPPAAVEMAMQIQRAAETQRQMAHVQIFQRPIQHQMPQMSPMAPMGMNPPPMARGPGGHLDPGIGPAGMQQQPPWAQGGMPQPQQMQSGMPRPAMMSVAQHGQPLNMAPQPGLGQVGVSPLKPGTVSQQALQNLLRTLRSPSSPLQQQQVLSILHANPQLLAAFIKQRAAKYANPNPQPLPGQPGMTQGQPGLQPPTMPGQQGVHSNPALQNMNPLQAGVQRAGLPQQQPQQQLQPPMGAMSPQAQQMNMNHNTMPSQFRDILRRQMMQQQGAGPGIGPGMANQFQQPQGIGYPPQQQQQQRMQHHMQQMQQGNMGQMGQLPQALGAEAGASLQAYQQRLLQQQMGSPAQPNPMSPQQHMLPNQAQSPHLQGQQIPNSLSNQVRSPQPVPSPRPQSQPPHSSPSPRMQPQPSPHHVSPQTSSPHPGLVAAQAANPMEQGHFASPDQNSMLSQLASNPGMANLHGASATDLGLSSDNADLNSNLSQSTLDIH

B1: Lamin B1 (other, mouse, UniProt P14733 2-585, looked up)
chain: ATATPVQQQRAGSRASAPATPLSPTRLSRLQEKEELRELNDRLAVYIDKVRSLETENSALQLQVTEREEVRGRELTGLKALYETELADARRALDDTARERAKLQIELGKFKAEHDQLLLNYAKKESDLSGAQIKLREYEAALNSKDAALATALGDKKSLEGDLEDLKDQIAQLEASLSAAKKQLADETLLKVDLENRCQSLTEDLEFRKNMYEEEINETRRKHETRLVEVDSGRQIEYEYKLAQALHEMREQHDAQVRLYKEELEQTYHAKLENARLSSEMNTSTVNSAREELMESRMRIESLSSQLSNLQKESRACLERIQELEDMLAKERDNSRRMLSDREREMAEIRDQMQQQLSDYEQLLDVKLALDMEISAYRKLLEGEEERLKLSPSPSSRVTVSRASSSRSVRTTRGKRKRVDVEESEASSSVSISHSASATGNVCIEEIDVDGKFIRLKNTSEQDQPMGGWEMIRKIGDTSVSYKYTSRYVLKAGQTVTVWAANAGVTASPPTDLIWKNQNSWGTGEDVKVILKNSQGEEVAQRSTVFKTTIPEEEEEEEEEPIGVAVEEERFHQQGAPRASNKSC
notes: whole, on cells; Endogenous protein inside fixed, permeabilised LPS-stimulated mouse spleen B cells; It was detected through a DNA barcode-labeled antibody (clone L-5)
B1: the binding result is on record as “binds”.

(Values after patent US20250258165A1 (OSAKA UNIVERSITY, published 2025).)
